Patent US20170362621A1, “ENGINEERED MULTIFUNCTIONAL ENZYMES AND METHODS OF USE” (Danisco US Inc., priority 2014, published 2017)

B1: Trichoderma reesei Bgl1 variant Bgl1-var-02, V43F (numbered per mature Bgl1, SEQ ID NO:3) (Trichoderma reesei; V74F) (protein)
chain: VVPPAGTPWGTAYDKAKAALAKLNLQDKVGIVSGVGWNGGPCFGNTSPASKISYPSLCLQDGPLGVRYSTGSTAFTPGVQAASTWDVNLIRERGQFIGEEVKASGIHVILGPVAGPLGKTPQGGRNWEGFGVDPYLTGIAMGQTINGIQSVGVQATAKHYILNEQELNRETISSNPDDRTLHELYTWPFADAVQANVASVMCSYNKVNTTWACEDQYTLQTVLKDQLGFPGYVMTDWNAQHTTVQSANSGLDMSMPGTDFNGNNRLWGPALTNAVNSNQVPTSRVDDMVTRILAAWYLTGQDQAGYPSFNISRNVQGNHKTNVRAIARDGIVLLKNDANILPLKKPASIAVVGSAAIIGNHARNSPSCNDKGCDDGALGMGWGSGAVNYPYFVAPYDAINTRASSQGTQVTLSNTDNTSSGASAARGKDVAIVFITADSGEGYITVEGNAGDRNNLDPWHNGNALVQAVAGANSNVIVVVHSVGAIILEQILALPQVKAVVWAGLPSQESGNALVDVLWGDVSPSGKLVYTIAKSPNDYNTRIVSGGSDSFSEGLFIDYKHFDDANITPRYEFGYGLSYTKFNYSRLSVLSTAKSGPATGAVVPGGPSDLFQNVATVTVDIANSGQVTGAEVAQLYITYPSSAPRTPPKQLRGFAKLNLTPGQSGTATFNIRRRDLSYWDTASQKWVVPSGSFGISVGASSRDIRLTSTLSVA
notes: diluted fermentation product
B2: Trichoderma reesei Bgl1 variant Bgl1-var-03, V43L (numbered per mature Bgl1, SEQ ID NO:3) (Trichoderma reesei; V74L) (protein)
chain: VVPPAGTPWGTAYDKAKAALAKLNLQDKVGIVSGVGWNGGPCLGNTSPASKISYPSLCLQDGPLGVRYSTGSTAFTPGVQAASTWDVNLIRERGQFIGEEVKASGIHVILGPVAGPLGKTPQGGRNWEGFGVDPYLTGIAMGQTINGIQSVGVQATAKHYILNEQELNRETISSNPDDRTLHELYTWPFADAVQANVASVMCSYNKVNTTWACEDQYTLQTVLKDQLGFPGYVMTDWNAQHTTVQSANSGLDMSMPGTDFNGNNRLWGPALTNAVNSNQVPTSRVDDMVTRILAAWYLTGQDQAGYPSFNISRNVQGNHKTNVRAIARDGIVLLKNDANILPLKKPASIAVVGSAAIIGNHARNSPSCNDKGCDDGALGMGWGSGAVNYPYFVAPYDAINTRASSQGTQVTLSNTDNTSSGASAARGKDVAIVFITADSGEGYITVEGNAGDRNNLDPWHNGNALVQAVAGANSNVIVVVHSVGAIILEQILALPQVKAVVWAGLPSQESGNALVDVLWGDVSPSGKLVYTIAKSPNDYNTRIVSGGSDSFSEGLFIDYKHFDDANITPRYEFGYGLSYTKFNYSRLSVLSTAKSGPATGAVVPGGPSDLFQNVATVTVDIANSGQVTGAEVAQLYITYPSSAPRTPPKQLRGFAKLNLTPGQSGTATFNIRRRDLSYWDTASQKWVVPSGSFGISVGASSRDIRLTSTLSVA
notes: diluted fermentation product
B3: Trichoderma reesei beta-glucosidase I (Bgl1), wild type, SEQ ID NO:2 (mature SEQ ID NO:3) (Trichoderma reesei) (protein)
chain: VVPPAGTPWGTAYDKAKAALAKLNLQDKVGIVSGVGWNGGPCVGNTSPASKISYPSLCLQDGPLGVRYSTGSTAFTPGVQAASTWDVNLIRERGQFIGEEVKASGIHVILGPVAGPLGKTPQGGRNWEGFGVDPYLTGIAMGQTINGIQSVGVQATAKHYILNEQELNRETISSNPDDRTLHELYTWPFADAVQANVASVMCSYNKVNTTWACEDQYTLQTVLKDQLGFPGYVMTDWNAQHTTVQSANSGLDMSMPGTDFNGNNRLWGPALTNAVNSNQVPTSRVDDMVTRILAAWYLTGQDQAGYPSFNISRNVQGNHKTNVRAIARDGIVLLKNDANILPLKKPASIAVVGSAAIIGNHARNSPSCNDKGCDDGALGMGWGSGAVNYPYFVAPYDAINTRASSQGTQVTLSNTDNTSSGASAARGKDVAIVFITADSGEGYITVEGNAGDRNNLDPWHNGNALVQAVAGANSNVIVVVHSVGAIILEQILALPQVKAVVWAGLPSQESGNALVDVLWGDVSPSGKLVYTIAKSPNDYNTRIVSGGSDSFSEGLFIDYKHFDDANITPRYEFGYGLSYTKFNYSRLSVLSTAKSGPATGAVVPGGPSDLFQNVATVTVDIANSGQVTGAEVAQLYITYPSSAPRTPPKQLRGFAKLNLTPGQSGTATFNIRRRDLSYWDTASQKWVVPSGSFGISVGASSRDIRLTSTLSVA
notes: secreted mature protein
B4: Trichoderma reesei Bgl1 variant Bgl1-var-12, V43F/W237A (numbered per mature Bgl1, SEQ ID NO:3) (Trichoderma reesei; V74F/W268A) (protein)
chain: VVPPAGTPWGTAYDKAKAALAKLNLQDKVGIVSGVGWNGGPCFGNTSPASKISYPSLCLQDGPLGVRYSTGSTAFTPGVQAASTWDVNLIRERGQFIGEEVKASGIHVILGPVAGPLGKTPQGGRNWEGFGVDPYLTGIAMGQTINGIQSVGVQATAKHYILNEQELNRETISSNPDDRTLHELYTWPFADAVQANVASVMCSYNKVNTTWACEDQYTLQTVLKDQLGFPGYVMTDANAQHTTVQSANSGLDMSMPGTDFNGNNRLWGPALTNAVNSNQVPTSRVDDMVTRILAAWYLTGQDQAGYPSFNISRNVQGNHKTNVRAIARDGIVLLKNDANILPLKKPASIAVVGSAAIIGNHARNSPSCNDKGCDDGALGMGWGSGAVNYPYFVAPYDAINTRASSQGTQVTLSNTDNTSSGASAARGKDVAIVFITADSGEGYITVEGNAGDRNNLDPWHNGNALVQAVAGANSNVIVVVHSVGAIILEQILALPQVKAVVWAGLPSQESGNALVDVLWGDVSPSGKLVYTIAKSPNDYNTRIVSGGSDSFSEGLFIDYKHFDDANITPRYEFGYGLSYTKFNYSRLSVLSTAKSGPATGAVVPGGPSDLFQNVATVTVDIANSGQVTGAEVAQLYITYPSSAPRTPPKQLRGFAKLNLTPGQSGTATFNIRRRDLSYWDTASQKWVVPSGSFGISVGASSRDIRLTSTLSVA
notes: diluted fermentation product

Tests used:
[1] = substrate: O=[N+]([O-])c1ccc(O[C@@H]2OC[C@@H](O)[C@H](O)[C@H]2O)cc1; assay: steady state kinetics, hydrolysis of pNpX; type: biochemical, Trichoderma reesei; details: other: pNpX, 37° C.
From the text: (§1) The Bgl1 variants of the table above were produced as follows. The nucleotide sequences encoding these variants were synthesized by an external vendor (BaseClear, Leiden, the Netherlands), and cloned into the pTTTpyr2 vector (see, e.g., published PCT application WO2014029808). Protoplasts of a Trichoderma reesei strain (e.g., the hexa-delete strain of International Publication WO05/001036) with its cbh1, cbh2, eg1, eg2, eg3, and bgl1 deleted) were transformed with plasmid DNA encoding the variants and wild type. The resulting transformants were fermented using standard Trichoderma reesei fermentation procedures.
(§2) Variants 02, 03 and 12 were diluted and incubated with varying concentrations of para-nitrophenol-beta-D-xylopyranoside (or para-nitrophenol-beta-D-xyloside) (pNpX) and para-nitrophenol-beta-D-glucopyranoside (pNpG) in the concentration range of 0.1-9 mM at 37° C. for 30 minutes. Reactions were stopped by addition of 100 μL 0.5 M sodium carbonate and absorbance was measured at 410 nm. Background subtracted OD410 absorbances were plotted against substrate concentration (FIG. 6B-E) and the data was fitted with a function for Michaelis-Menten kinetics using the statistical software package R. Michaelis constants and relative maximum velocities for hydrolysis of pNpX and pNpG were reported in Tables 6 and 7, below, respectively.
It was noted that the data for pNpX hydrolysis by the wild type Bgl1 could not be fitted with the Michaelis-Menten function. In order to calculate a Michalis constant the maximum velocity obtained for Variant 03 was used.

[2] = substrate: O=[N+]([O-])c1ccc(O[C@@H]2O[C@H](CO)[C@@H](O)[C@H](O)[C@H]2O)cc1; assay: steady state kinetics, hydrolysis of pNpG; type: biochemical, Trichoderma reesei; details: other: pNpG, 0.1-9 mM, 37° C., 30 minutes
From the text: as §1, §2

| Protein | Km ([1]; 0.1-9 mM, 30 minutes) [mM] | Km [2] [mM] | Km ([1]; data could not be fitted, calculated with the maximum velocity obtained for Variant 03) [mM] |
| --- | --- | --- | --- |
| B1 | 5.7 | 4.8 |  |
| B2 | 7 | 1.17 |  |
| B3 |  | 1.3 | 45.1 |
| B4 | 18.4 | 9.1 |  |
